In patent US20240199724A1 (THELPER, published 2024):
Where “and” joins values, the source holds several entries; their conditions need not be identical. Equal values may be shown once.

B1: US28-14-4E4-1E8 antibody (antibody, mouse IgG1, kappa, V domains shown)
VH: EVKLVESGGDLVKPGGSLKLSCAASGFTFSSYAMSWVRQTPEKRLEWVASISSGGRTYYPDSVKGRFTISRDNARNILYLQMSSLRSEDTAIYYCARGGTRHSYGNGFDYWGQGTTLTVSS
VL: QIVLSQSPTIMSASPGEKVTMTCSASSSVSYMHWYQQKSGTSPKRWIYDSSKLASGVPARFSGSGSGTSYSLTISSMEAEDAATYYCQQWTSNPPITFGAGTKLELKR
B2: US28-13-1H3-1A10 antibody (antibody, mouse IgG1, kappa, V domains shown)
VH: EVKLVESGGVLVKPGGSLKFSCAASGFTLSSHALSWVRQTPEKRLEWVASISSRGRTYYPDSVKGRFTVSRDNARNILYLQVSSLRSEDTAMYYCTRGGTHYSYGNGFDFWGQGTTLTVSS
VL: QIVLTQSPAIMSASPGEKVTMTCSVSSSVSYMHWYQQKSGTSPKRWIYDTSKLASGVPARFSGSGSGTSYSLTISTMEAEDAATYYCQQWSNNPPITFGAGTKLELKR
notes: also called 14-1H3-1A10; 14-IH3-IA10
B3: US28-13-1C10-1C10 antibody (antibody, mouse IgG1, kappa, V domains shown)
VH: EVKLVESGGVLVKPGGSLKFSCAASGFTFSSHALSWVRQTPEKRLEWVASISSRGRTYYPDSVKGRFTVSRDNARNILYLQVSSLRSEDTAMYYCTRGGTHYSYGNGFDFWGQGTTLTVSS
VL: QIVLTQSPAIMSASPGEKVTMTCSVSSSVSYMHWYQQKSGTSPKRWIYDTSKLASGVPARFSGSGSGTSYSLTISTMEAEDAATYYCQQWSNNPPITFGAGTKLELKR
B4: monovalent VUN100 (VHH)
VHH: EVQLVESGGGLVQPGGSLRLACAVSGPGLIFKFTGVAWYRRQVPGAKRGLVALITGDGATRYGDSVKGRFTVSRDIAAKRVYLEMNDLRSEDTAVYYCKTGEYWGQGTQVTVSS
notes: also called Mv VUN100; VUN100 Ab
B5: bivalent VUN100 (VHH)
chain: EVQLVESGGGLVQPGGSLRLACAVSGPGLIFKFTGVAWYRRQVPGAKRGLVALITGDGATRYGDSVKGRFTVSRDIAAKRVYLEMNDLRSEDTAVYYCKTGEYWGQGTQVTVSSGGGGSGGGGSGGGGSGGGGSGGGGSGGGGSEVQLVESGGGLVQPGGSLRLACAVSGPGLIFKFTGVAWYRRQVPGAKRGLVALITGDGATRYGDSVKGRFTVSRDIAAKRVYLEMNDLRSEDTAVYYCKTGEYWGQGTQVTVSS
notes: also called VUN100b; BvVUN100
B6: US28-13-5G6-1D3 antibody (antibody)
heavy: EVKLVESGGGLVQPGGSLRLACATSGFTFTDYYMSWVRQPPGKALEWLGFIRSKANGYTTEYSASVKGRFTISRDNSQSILYLQMNTLRSEDSATYYCARDERRTAWLAYWGQGTLVTVSAAKTTPPSVYPLAPGSAAQTNSMVTLGCLVKGYFPEPVTVTWNSGSLSSGVHTFPAVLQSDLYTLSSSVTVPSSTWPSETVTCNVAHPASSTKVDKKIVPRDCGCKPCICTVPEVSSVFIFPPKPKDVLTITLTPKVTCVVVDISKDDPEVQFSWFVDDVEVHTAQTQPREEQFNSTFRSVSELPIMHQDWLNGKEFKCRVNSAAFPAPIEKTISKTKGRPKAPQVYTIPPPKEQMAKDKVSLTCMITDFFPEDITVEWQWNGQPAENYKNTQPIMDTDGSYFIYSKLNVQKSNWEAGNTFTCSVLHEGLHNHHTEKSLSHSPGK
light: DVLMTQTPLSLPVSLGDQASISCRSSQSIVHSNGNTYLDWYLQKPGQSPKLLIYKVSNRFSGVPDRFSGSGSGTDFTLKISRVEAEDLGVYYCFQGSHVPTWTFGGGTKLEIKRADAAPTVSIFPPSSEQLTSGGASVVCFLNNFYPKDINVKWKIDGSERQNGVLNSWTDQDSKDSTYSMSSTLTLTKDEYERHNSYTCEATHKTSTSPIVKSFNRNEC
B7: US28-13-5G6-1D3 antibody (antibody, V domains shown)
VH: EVKLVESGGGLVQPGGSLRLACATSGFTFTDYYMSWVRQPPGKALEWLGFIRSKANGYTTEYSASVKGRFTISRDNSQSILYLQMNTLRSEDSATYYCARDERRTAWLAYWGQGTLVTVSA
VL: DVLMTQTPLSLPVSLGDQASISCRSSQSIVHSNGNTYLDWYLQKPGQSPKLLIYKVSNRFSGVPDRFSGSGSGTDFTLKISRVEAEDLGVYYCFQGSHVPTWTFGGGTKLEIKR
notes: also called US28-13-5G6-1D3 Ab; US28-13-5G6-1D3 rAb

Tests used:
[1] = target: US28 of HCMV strain DB with C-terminal 6His tag, on CHO-US28-A1 cells (human cytomegalovirus (HCMV) strain DB) (UniProt P69332); experiment: flow cytometry, secondary antibody alone on CHO-US28-A1 cells
[2] = target: T1, US28 of HCMV strain DB with C-terminal 6His tag, on CHO-US28-A1 cells (human cytomegalovirus (HCMV) strain DB, UniProt P69332 1-354); experiment: flow cytometry, CHO-US28 (DB) cells against control CHO cells, background subtracted
T1 chain: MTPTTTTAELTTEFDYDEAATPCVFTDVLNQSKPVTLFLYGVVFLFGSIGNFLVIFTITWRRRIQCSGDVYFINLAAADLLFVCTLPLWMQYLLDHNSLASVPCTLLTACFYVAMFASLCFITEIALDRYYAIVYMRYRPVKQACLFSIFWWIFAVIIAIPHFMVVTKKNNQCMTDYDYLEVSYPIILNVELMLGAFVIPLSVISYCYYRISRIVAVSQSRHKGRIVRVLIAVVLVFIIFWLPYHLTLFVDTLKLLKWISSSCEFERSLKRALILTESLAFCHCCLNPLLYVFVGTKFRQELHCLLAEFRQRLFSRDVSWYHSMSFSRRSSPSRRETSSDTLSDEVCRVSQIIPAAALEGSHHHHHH

[3] = target: T2, US28 of HCMV strain TB40/E with C-terminal 6His tag, on CHO cells (human cytomegalovirus (HCMV) strain …, UniProt P69332 1-354); experiment: flow cytometry, CHO cells expressing DB or TB40/E US28 (FIG. 21C)
T2 construct: also called TB40/E form of US28
T2 chain: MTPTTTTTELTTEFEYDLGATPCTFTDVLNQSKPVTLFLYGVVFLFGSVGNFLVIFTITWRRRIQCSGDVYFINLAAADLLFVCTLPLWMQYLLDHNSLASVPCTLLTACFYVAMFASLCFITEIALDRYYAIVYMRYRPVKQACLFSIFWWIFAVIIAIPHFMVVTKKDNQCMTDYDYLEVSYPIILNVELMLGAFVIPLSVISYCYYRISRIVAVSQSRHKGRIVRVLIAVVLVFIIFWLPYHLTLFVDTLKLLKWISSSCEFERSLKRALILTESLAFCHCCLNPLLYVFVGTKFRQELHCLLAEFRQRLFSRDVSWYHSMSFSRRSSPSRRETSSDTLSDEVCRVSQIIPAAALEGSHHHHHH

[4] = target: T2, US28 of HCMV strain TB40/E with …; experiment: flow cytometry, CHO cells expressing US28 of strain TB40/E
[5] = target: T3, mutated US28 (artificially created mutated strain) with C-terminal 6His tag, on CHO cells (human cytomegalovirus (HCMV), …, UniProt P69332 1-354); experiment: flow cytometry, CHO cells expressing the mutated US28 (FIG. 21B)
T3 construct: also called CHO-mutated strain; mutated form of US28
T3 chain: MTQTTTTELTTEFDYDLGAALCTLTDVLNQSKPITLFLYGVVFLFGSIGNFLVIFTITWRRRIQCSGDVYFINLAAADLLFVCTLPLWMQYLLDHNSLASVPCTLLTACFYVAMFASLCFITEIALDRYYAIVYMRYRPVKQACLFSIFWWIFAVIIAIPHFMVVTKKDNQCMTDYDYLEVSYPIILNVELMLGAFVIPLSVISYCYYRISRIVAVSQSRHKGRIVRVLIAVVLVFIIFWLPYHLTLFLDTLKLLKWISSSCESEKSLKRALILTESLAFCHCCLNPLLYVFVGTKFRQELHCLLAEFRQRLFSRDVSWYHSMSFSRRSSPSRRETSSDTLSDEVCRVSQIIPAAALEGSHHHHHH

[6] = target: T2, US28 of HCMV strain TB40/E with …; experiment: flow cytometry, CHO cells expressing DB or TB40/E US28 (FIG. 21D)
[7] = target: T3, mutated US28 (artificially created …); experiment: flow cytometry, CHO cells expressing the mutated US28
[8] = target: T1, US28 of HCMV strain DB with C-terminal …; experiment: flow cytometry, CHO cells expressing US28 of strain DB
[9] = target: Bio-Peptide-2 (human cytomegalovirus (HCMV), 4D variant); experiment: ELISA (FIG. 5)
[10] = target: T4, US28 of HCMV strain Ad169, on infected MRC-5 cells (human cytomegalovirus (HCMV) strain …, UniProt P69332 1-354)
T4 sequence: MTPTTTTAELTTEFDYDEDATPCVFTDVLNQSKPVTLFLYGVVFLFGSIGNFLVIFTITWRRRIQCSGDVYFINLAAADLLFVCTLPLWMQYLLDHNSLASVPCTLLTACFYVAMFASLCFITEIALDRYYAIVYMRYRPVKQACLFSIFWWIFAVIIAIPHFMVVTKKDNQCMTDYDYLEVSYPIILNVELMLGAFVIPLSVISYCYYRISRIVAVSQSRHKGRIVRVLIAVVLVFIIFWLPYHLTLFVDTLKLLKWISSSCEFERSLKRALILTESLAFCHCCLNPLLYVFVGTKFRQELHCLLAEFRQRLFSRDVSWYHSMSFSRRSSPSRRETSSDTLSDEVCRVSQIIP

[11] = target: T1, US28 of HCMV strain DB with C-terminal …; experiment: flow cytometry
[12] = target: T1, US28 of HCMV strain DB with C-terminal …; experiment: flow cytometry, 1:50 (w/v)

| Molecule | Binding specificity comparative to the specificity displayed by VUN100 [2] | % change in absolute level of binding between the DB and TB40/E forms of US28 [3] | percent of cells bound [4] | percentage retention of binding activity between the DB and TB40/E forms of US28 [6] | percent of cells bound [7] | percent of cells bound [8] | further results |
| --- | --- | --- | --- | --- | --- | --- | --- |
| Goat anti-mouse IgG-Alexa 488 (antibody) | – | – | – | – | – | – | percent of cells bound [1]: 1.63% |
| B1 | 4.6 ratio | – | – | – | – | – | – |
| B2 | 2.29 ratio | – | – | – | – | – | – |
| B3 | 1.74 ratio | – | – | – | – | – | – |
| B4 | – | > 35% | 4.33% | ≤ 60% | 1.41% | 6.91% | specificity (fold binding against control CHO cells) [5]: < 1 fold; binding result [7]: no binding (tested: 50 µg/ml) |
| B5 | – | > 40% | 5.2% | ≤ 60% | 2.58% | 9.24% | fold binding against control CHO cells [5]: 2.43 fold |
| B6 | – | – | – | – | – | – | fold binding against BSA control [9]: 27 fold and 28 fold |
| B7 | 1.65 ratio | < 10% | 18.2% | ~100% | 12.9% | 16.6% | fold binding against control CHO cells [5]: ~15 fold; fold binding against uninfected cells [10]: ~16 fold; fold binding against normal CHO cells [11]: > 21 fold; fold binding against US28 negative CHO cells [12]: 15 fold |
